The target of the experiment is Triggering receptor expressed on myeloid cell-1 (TREM-1), human (human) (UniProt Q9NP99). Briefly: cell-based or functional assay.
UniProt Q9NP99, sequence (Q9NP99 21-234): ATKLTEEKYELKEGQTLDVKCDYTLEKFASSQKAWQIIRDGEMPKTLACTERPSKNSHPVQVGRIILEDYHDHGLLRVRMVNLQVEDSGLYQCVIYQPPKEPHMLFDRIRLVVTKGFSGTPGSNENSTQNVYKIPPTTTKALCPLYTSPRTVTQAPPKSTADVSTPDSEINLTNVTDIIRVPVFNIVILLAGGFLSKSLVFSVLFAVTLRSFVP

In turn, “anti-hTREM-1 antibody (MAB1278, R&D Systems)” showed a CSF2 (GM-CSF) mRNA induction (microarray, human monocytes) of 9.6 fold; an INHBA transcript fold change (microarray, human monocytes), confirmed at protein level by ELISA of 96.7 fold; a M-CSF transcript fold change (microarray, human monocytes), confirmed at protein level by ELISA of 22 fold; an SPP1 transcript fold change (microarray, human monocytes, 2 hours, α-TREM-1 against control antibody) of 28 fold.

(Values after US20080247955A1.)
